Source: article PMC3154154

Legend:
[1] = molecular target: L19 IgG control antibody (unmodified, without linker) (human); assay: SPR; Biacore T100; L19 IgG or modified versions immobilised on a CM5 chip treated with antibody capture kit; soluble Fc receptor fragments as analytes at 1.56 - 50 nM; association and dissociation kinetics used to calculate the dissociation constant
[2] = molecular target: L19 IgG-DnaEN after PTS (trans-spliced with DnaEC peptide without a probe) (human); assay: as above
Chain of L19 IgG-DnaEN after PTS (trans-spliced with DnaEC peptide without a probe) (human) (heavy, as listed by the source, chain 1 of 2): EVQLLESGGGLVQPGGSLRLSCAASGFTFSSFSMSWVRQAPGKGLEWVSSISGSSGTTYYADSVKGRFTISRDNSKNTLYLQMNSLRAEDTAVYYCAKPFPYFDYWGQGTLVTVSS
Chain of L19 IgG-DnaEN after PTS (trans-spliced with DnaEC peptide without a probe) (human) (light, as listed by the source, chain 2 of 2): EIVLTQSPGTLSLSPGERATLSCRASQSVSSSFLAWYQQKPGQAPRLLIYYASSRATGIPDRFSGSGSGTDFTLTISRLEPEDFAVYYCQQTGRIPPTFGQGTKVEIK

[3] = molecular target: L19 IgG-GyrA after EPL (cleaved with Mesna, cysteine as probe) (human); assay: as above
Chain of L19 IgG-GyrA after EPL (cleaved with Mesna, cysteine as probe) (human) (heavy, as listed by the source, chain 1 of 2): as the sequence (heavy, as listed by the source, chain 1 of 2) above
Chain of L19 IgG-GyrA after EPL (cleaved with Mesna, cysteine as probe) (human) (light, as listed by the source, chain 2 of 2): as the sequence (light, as listed by the source, chain 2 of 2) above

[4] = molecular target: L19 IgG after EPL (L19 IgG-GyrA cleaved with Mesna and derivatized with cysteine) (human); assay: SPR; Biacore T100; L19 IgG or modified versions immobilized on a CM5 chip treated with antibody capture kit; soluble Fc receptor fragments 1.56 - 50 nM as analytes; KD calculated from association and dissociation kinetics
Chain of L19 IgG after EPL (L19 IgG-GyrA cleaved with Mesna and derivatized with cysteine) (human) (heavy, as listed by the source, chain 1 of 2): as the sequence (heavy, as listed by the source, chain 1 of 2) above
Chain of L19 IgG after EPL (L19 IgG-GyrA cleaved with Mesna and derivatized with cysteine) (human) (light, as listed by the source, chain 2 of 2): as the sequence (light, as listed by the source, chain 2 of 2) above

[5] = molecular target: L19 IgG after PTS (L19 IgG-DnaEN trans-spliced with DnaEC peptide without a probe) (human); assay: as above
Chain of L19 IgG after PTS (L19 IgG-DnaEN trans-spliced with DnaEC peptide without a probe) (human) (heavy, as listed by the source, chain 1 of 2): as the sequence (heavy, as listed by the source, chain 1 of 2) above
Chain of L19 IgG after PTS (L19 IgG-DnaEN trans-spliced with DnaEC peptide without a probe) (human) (light, as listed by the source, chain 2 of 2): as the sequence (light, as listed by the source, chain 2 of 2) above

Chain of L19 IgG control antibody (unmodified, without linker) (human) (heavy, as listed by the source, chain 1 of 2): as the sequence (heavy, as listed by the source, chain 1 of 2) above
Chain of L19 IgG control antibody (unmodified, without linker) (human) (light, as listed by the source, chain 2 of 2): as the sequence (light, as listed by the source, chain 2 of 2) above

Substance | Kd [1] | koff [1] | kon [1] | Kd [2] | koff [2] | kon [2] | Kd [3] | koff [3] | kon [3] | Kd [4] | Kd [5]
Fcγ RI/CD64, soluble Fc receptor fragment (from UniProt P12314 16-292) | 170 pM | 0.000168 s⁻¹ | 1.02e+06 M⁻¹ s⁻¹ | 210 pM | 0.000201 s⁻¹ | 960000 M⁻¹ s⁻¹ | 130 pM | 0.000145 s⁻¹ | 1.11e+06 M⁻¹ s⁻¹ |  | 
soluble Fc receptor fragment Fcγ RIIIA/CD16a (from UniProt P08637 17-208) |  |  |  |  |  |  |  |  |  | 60000 pM | 60000 pM
